target: T1, CD3ε homodimer protein (human, UniProt P07766 23-126, limits assumed); test: SPR, CD3e immobilized
T1 construct: Whole entry named for the human CD3 epsilon chain
T1 sequence (P07766 23-126 limits assumed): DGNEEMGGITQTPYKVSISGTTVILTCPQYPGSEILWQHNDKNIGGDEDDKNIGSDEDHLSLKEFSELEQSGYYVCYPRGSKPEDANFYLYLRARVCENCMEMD
Experimental: Each one-amino acid altered form constructed, expressed, and purified in the paragraph (6-2) was evaluated using Biacore T200 (GE Healthcare Japan Corp.). An appropriate amount of CD3ε homodimer protein was immobilized onto Sensor chip CM4 (GE Healthcare Japan Corp.) by the amine coupling method. Then, the antibody having an appropriate concentration was injected thereto as an analyte and allowed to interact with the CD3ε homodimer protein on the sensor chip. Then, the sensor chip was regenerated by the injection of 10 mmol/L glycine-HCl (pH 1.5). The assay was conducted at 25° C., and HBS-EP+ (GE Healthcare Japan Corp.) was used as a running buffer. […] Each parameter was calculated using Biacore T200 Evaluation Software (GE Healthcare Japan Corp.).
Specifically, when the amount of the GLS3000-containing antibody bound was defined as X and the amount of the L chain one-amino acid altered form bound was defined as Y, a value of Z (ratio of amounts bound)=Y/X was used.

Row | Binder | KD ratio to GLS3000
1 | GLS3000 R45Q (antibody, IgG1, name in Kabat numbering, V domains shown) VH: QVQLVESGGGVVQPGRSLRLSCAASGFTFSNAWMHWVRQAPGKGLEWVAQIKAKSNNYATYYAESVKGRFTISRDDSKNSLYLQMNSLKTEDTAVYYCRYVHYGAYYGVDAWGQGTTVTVSS VL: DIVMTQSPLSLPVTPGEPASISCRSSQSLVHSNRNTYLHWYQQKPGQAPQLLIYKVSNRFSGVPDRFSGSGSGTDFTLKISRVEAEDVGVYYCGQGTQVPYTFGQGTKLEIK | 0.98
2 | GLS3000 T92Y (antibody, IgG1, name in Kabat numbering, V domains shown) VH: QVQLVESGGGVVQPGRSLRLSCAASGFTFSNAWMHWVRQAPGKGLEWVAQIKAKSNNYATYYAESVKGRFTISRDDSKNSLYLQMNSLKTEDTAVYYCRYVHYGAYYGVDAWGQGTTVTVSS VL: DIVMTQSPLSLPVTPGEPASISCRSSQSLVHSNRNTYLHWYQQKPGQAPRLLIYKVSNRFSGVPDRFSGSGSGTDFTLKISRVEAEDVGVYYCGQGYQVPYTFGQGTKLEIK | 2.53
3 | GLS3000 S27eE (antibody, IgG1, name in Kabat numbering, V domains shown) VH: QVQLVESGGGVVQPGRSLRLSCAASGFTFSNAWMHWVRQAPGKGLEWVAQIKAKSNNYATYYAESVKGRFTISRDDSKNSLYLQMNSLKTEDTAVYYCRYVHYGAYYGVDAWGQGTTVTVSS VL: DIVMTQSPLSLPVTPGEPASISCRSSQSLVHENRNTYLHWYQQKPGQAPRLLIYKVSNRFSGVPDRFSGSGSGTDFTLKISRVEAEDVGVYYCGQGTQVPYTFGQGTKLEIK | 1.84
4 | GLS3000 S27eL (antibody, IgG1, name in Kabat numbering, V domains shown) VH: QVQLVESGGGVVQPGRSLRLSCAASGFTFSNAWMHWVRQAPGKGLEWVAQIKAKSNNYATYYAESVKGRFTISRDDSKNSLYLQMNSLKTEDTAVYYCRYVHYGAYYGVDAWGQGTTVTVSS VL: DIVMTQSPLSLPVTPGEPASISCRSSQSLVHLNRNTYLHWYQQKPGQAPRLLIYKVSNRFSGVPDRFSGSGSGTDFTLKISRVEAEDVGVYYCGQGTQVPYTFGQGTKLEIK | 1.66
5 | GLS3000 S25E (antibody, IgG1, name in Kabat numbering, V domains shown) VH: QVQLVESGGGVVQPGRSLRLSCAASGFTFSNAWMHWVRQAPGKGLEWVAQIKAKSNNYATYYAESVKGRFTISRDDSKNSLYLQMNSLKTEDTAVYYCRYVHYGAYYGVDAWGQGTTVTVSS VL: DIVMTQSPLSLPVTPGEPASISCRESQSLVHSNRNTYLHWYQQKPGQAPRLLIYKVSNRFSGVPDRFSGSGSGTDFTLKISRVEAEDVGVYYCGQGTQVPYTFGQGTKLEIK | 6.54

The next lines start with the values.

Row | KD ratio to GLS3000 | Binder
6 | 1.3 | GLS3000 V27cE (antibody, IgG1, name in Kabat numbering, V domains shown) VH: QVQLVESGGGVVQPGRSLRLSCAASGFTFSNAWMHWVRQAPGKGLEWVAQIKAKSNNYATYYAESVKGRFTISRDDSKNSLYLQMNSLKTEDTAVYYCRYVHYGAYYGVDAWGQGTTVTVSS VL: DIVMTQSPLSLPVTPGEPASISCRSSQSLEHSNRNTYLHWYQQKPGQAPRLLIYKVSNRFSGVPDRFSGSGSGTDFTLKISRVEAEDVGVYYCGQGTQVPYTFGQGTKLEIK
7 | 0.96 | GLS3000 Y96F (antibody, IgG1, name in Kabat numbering, V domains shown) VH: QVQLVESGGGVVQPGRSLRLSCAASGFTFSNAWMHWVRQAPGKGLEWVAQIKAKSNNYATYYAESVKGRFTISRDDSKNSLYLQMNSLKTEDTAVYYCRYVHYGAYYGVDAWGQGTTVTVSS VL: DIVMTQSPLSLPVTPGEPASISCRSSQSLVHSNRNTYLHWYQQKPGQAPRLLIYKVSNRFSGVPDRFSGSGSGTDFTLKISRVEAEDVGVYYCGQGTQVPFTFGQGTKLEIK

target: T2, CD3ε homodimer protein (human, UniProt P07766 23-126, limits assumed); test: SPR (Biacore T200, 25°C); CD3ε homodimer immobilized on CM4, one-arm antibody as analyte
T2 construct: also called human CD3ε homodimer protein; CD3e homodimer
T2 sequence (P07766 23-126 limits assumed): as the sequence (P07766 23-126 limits assumed) above

Row | Kd [nM] | Binder
8 | 69 | NNS6f63 (antibody, one-arm antibody) heavy: QVQLVESGGGLVQPGRSLRLSCAASGFTFSNAWMHWVRQAPGKGLEWVAQIKDKSNNYATYYAESVKGRFTISRDDSKNSIYLQMNSLKTEDTAVYYCRYVHYAAGGGGWVYYGVDAWGQGTTVTVSSASTKGPSVFPLAPSSKSTSGGTAALGCLVKDYFPEPVTVSWNSGALTSGVHTFPAVLQSSGLYSLSSVVTVPSSSLGTQTYICNVNHKPSNTKVDKKVEPKSCDKTHTCPPCPAPEAAGGPSVFLFPPKPKDTLMISRTPEVTCVVVDVSHEDPEVKFNWYVDGVEVHNAKTKPREEQYASTYRVVSVLTVLHQDWLNGKEYKCKVSNKALPAPIEKTISKAKGQPREPQVYTLPPSRCELTKNQVSLSCAVKGFYPSDIAVEWESNGQPENNYKTTPPVLDSDGSFFLVSKLTVDKSRWQQGNVFSCSVMHEALHNHYTQKSLSLSPDYKDDDDK EPKSSDKTHTCPPCPAPELLGGPSVFLFPPKPKDTLMISRTPEVTCVVVDVSHEDPEVKFNWYVDGVEVHNAKTKPREEQYNSTYRVVSVLTVLHQDWLNGKEYKCKVSNKALPAPIEKTISKAKGQPREPQVCTLPPSRDELTKNQVSLWCLVKGFYPSDIAVEWESNGQPENNYKTTPPVLDSDGSFFLYSKLTVDKSRWQQGNVFSCSVMHEALHNRYTQKSLSLSP light: DIVMTQSPLSLPVTPGEPASISCRSSQSLVHSNRNTYLHWYQQKPGQAPRLLIYKVSNRFSGVPDRFSGSGSGTDFTLKISRVEAEDVGVYYCGQGTQVPYTFGQGTKLEIKRTVAAPSVFIFPPSDEQLKSGTASVVCLLNNFYPREAKVQWKVDNALQSGNSQESVTEQDSKDSTYSLSSTLTLSKADYEKHKVYACEVTHQGLSSPVTKSFNRGEC
9 | 90 | NNS6f29 (antibody, one-arm antibody) heavy: QVQLVESGGGLVQPGRSLRLSCAASGFTFSNAWMHWVRQAPGKGLEWVAQIKDKSNNYATYYAESVKGRFTISRDDSKNSIYLQMNSLKTEDTAVYYCRYVHYAAIYYPTNYYGVDAWGQGTTVTVSSASTKGPSVFPLAPSSKSTSGGTAALGCLVKDYFPEPVTVSWNSGALTSGVHTFPAVLQSSGLYSLSSVVTVPSSSLGTQTYICNVNHKPSNTKVDKKVEPKSCDKTHTCPPCPAPEAAGGPSVFLFPPKPKDTLMISRTPEVTCVVVDVSHEDPEVKFNWYVDGVEVHNAKTKPREEQYASTYRVVSVLTVLHQDWLNGKEYKCKVSNKALPAPIEKTISKAKGQPREPQVYTLPPSRCELTKNQVSLSCAVKGFYPSDIAVEWESNGQPENNYKTTPPVLDSDGSFFLVSKLTVDKSRWQQGNVFSCSVMHEALHNHYTQKSLSLSPDYKDDDDK EPKSSDKTHTCPPCPAPELLGGPSVFLFPPKPKDTLMISRTPEVTCVVVDVSHEDPEVKFNWYVDGVEVHNAKTKPREEQYNSTYRVVSVLTVLHQDWLNGKEYKCKVSNKALPAPIEKTISKAKGQPREPQVCTLPPSRDELTKNQVSLWCLVKGFYPSDIAVEWESNGQPENNYKTTPPVLDSDGSFFLYSKLTVDKSRWQQGNVFSCSVMHEALHNRYTQKSLSLSP light: DIVMTQSPLSLPVTPGEPASISCRSSQSLVHSNRNTYLHWYQQKPGQAPRLLIYKVSNRFSGVPDRFSGSGSGTDFTLKISRVEAEDVGVYYCGQGTQVPYTFGQGTKLEIKRTVAAPSVFIFPPSDEQLKSGTASVVCLLNNFYPREAKVQWKVDNALQSGNSQESVTEQDSKDSTYSLSSTLTLSKADYEKHKVYACEVTHQGLSSPVTKSFNRGEC
10 | 74 | NNS6f17 (antibody, one-arm antibody) heavy: QVQLVESGGGLVQPGRSLRLSCAASGFTFSNAWMHWVRQAPGKGLEWVAQIKDKSNNYATYYAESVKGRFTISRDDSKNSIYLQMNSLKTEDTAVYYCRYVHYAAWGEGVVYYGVDAWGQGTTVTVSSASTKGPSVFPLAPSSKSTSGGTAALGCLVKDYFPEPVTVSWNSGALTSGVHTFPAVLQSSGLYSLSSVVTVPSSSLGTQTYICNVNHKPSNTKVDKKVEPKSCDKTHTCPPCPAPEAAGGPSVFLFPPKPKDTLMISRTPEVTCVVVDVSHEDPEVKFNWYVDGVEVHNAKTKPREEQYASTYRVVSVLTVLHQDWLNGKEYKCKVSNKALPAPIEKTISKAKGQPREPQVYTLPPSRCELTKNQVSLSCAVKGFYPSDIAVEWESNGQPENNYKTTPPVLDSDGSFFLVSKLTVDKSRWQQGNVFSCSVMHEALHNHYTQKSLSLSPDYKDDDDK EPKSSDKTHTCPPCPAPELLGGPSVFLFPPKPKDTLMISRTPEVTCVVVDVSHEDPEVKFNWYVDGVEVHNAKTKPREEQYNSTYRVVSVLTVLHQDWLNGKEYKCKVSNKALPAPIEKTISKAKGQPREPQVCTLPPSRDELTKNQVSLWCLVKGFYPSDIAVEWESNGQPENNYKTTPPVLDSDGSFFLYSKLTVDKSRWQQGNVFSCSVMHEALHNRYTQKSLSLSP light: DIVMTQSPLSLPVTPGEPASISCRSSQSLVHSNRNTYLHWYQQKPGQAPRLLIYKVSNRFSGVPDRFSGSGSGTDFTLKISRVEAEDVGVYYCGQGTQVPYTFGQGTKLEIKRTVAAPSVFIFPPSDEQLKSGTASVVCLLNNFYPREAKVQWKVDNALQSGNSQESVTEQDSKDSTYSLSSTLTLSKADYEKHKVYACEVTHQGLSSPVTKSFNRGEC
11 | 38 | NNS6f27 (antibody, one-arm antibody) heavy: QVQLVESGGGLVQPGRSLRLSCAASGFTFSNAWMHWVRQAPGKGLEWVAQIKDKSNNYATYYAESVKGRFTISRDDSKNSIYLQMNSLKTEDTAVYYCRYVHYAAVWGSVWYYGVDAWGQGTTVTVSSASTKGPSVFPLAPSSKSTSGGTAALGCLVKDYFPEPVTVSWNSGALTSGVHTFPAVLQSSGLYSLSSVVTVPSSSLGTQTYICNVNHKPSNTKVDKKVEPKSCDKTHTCPPCPAPEAAGGPSVFLFPPKPKDTLMISRTPEVTCVVVDVSHEDPEVKFNWYVDGVEVHNAKTKPREEQYASTYRVVSVLTVLHQDWLNGKEYKCKVSNKALPAPIEKTISKAKGQPREPQVYTLPPSRCELTKNQVSLSCAVKGFYPSDIAVEWESNGQPENNYKTTPPVLDSDGSFFLVSKLTVDKSRWQQGNVFSCSVMHEALHNHYTQKSLSLSPDYKDDDDK EPKSSDKTHTCPPCPAPELLGGPSVFLFPPKPKDTLMISRTPEVTCVVVDVSHEDPEVKFNWYVDGVEVHNAKTKPREEQYNSTYRVVSVLTVLHQDWLNGKEYKCKVSNKALPAPIEKTISKAKGQPREPQVCTLPPSRDELTKNQVSLWCLVKGFYPSDIAVEWESNGQPENNYKTTPPVLDSDGSFFLYSKLTVDKSRWQQGNVFSCSVMHEALHNRYTQKSLSLSP light: DIVMTQSPLSLPVTPGEPASISCRSSQSLVHSNRNTYLHWYQQKPGQAPRLLIYKVSNRFSGVPDRFSGSGSGTDFTLKISRVEAEDVGVYYCGQGTQVPYTFGQGTKLEIKRTVAAPSVFIFPPSDEQLKSGTASVVCLLNNFYPREAKVQWKVDNALQSGNSQESVTEQDSKDSTYSLSSTLTLSKADYEKHKVYACEVTHQGLSSPVTKSFNRGEC

— patent publication US20220040297A1 (Chugai, published 2022)
